# Test results published in patent US20030143692A1, “Methods and compositions for modulating integrin-mediated cell-cell interactions” (priority 2000, published 2003).
# B1: ADAM 23-GST: recombinant ADAM 23 disintegrin domain expressed as a GST fusion protein in E. coli, about 40 kDa (protein)
# chain: KLFEPTECGNGYVEAGEECDCGFHVECYGLCCKKCSLSNGAHCSDGPCCNNTSCLFQPRGYECRDAVNECDITEYCTGDSGQCPPNLHKQD
# modifications: left off: a dimerising Fc or GST
# notes: recombinant ADAM 23 disintegrin domain expressed as a GST fusion protein in E. coli, about 40 kDa
# Columns and labels:
# [1] = tested on: ADAM 23 mediated adhesion of NB100 neuroblastoma cells; assay: Inhibition of ADAM 23 mediated adhesion of NB100 cells; format: cell-based, human; conditions: NB100 cells incubated with peptide (20 or 40 μg/ml) prior to seeding
# Experimental: Cell adhesion assays were performed in accordance with procedures described by Luque et al. (FEBS Lett 1994 346:278-284). In these assays, 96-well immunoplates (MaxiSorp, Nunc, Denmark) were coated with 0.1 ml of PBS containing different amounts of BSA, glutathione S-transferase (GST), and ADAM 23/GST. After incubating 16 hours at 4° C., wells were blocked with DMEM containing 2.5% BSA, for 2 hours at 37° C. Then, NB100 neuroblastoma cells (approximately 50,000 cells per well) were added in Dulbecco's modified Eagle's medium (DMEM) supplemented with 1% BSA and incubated at 37° C. for 2 hours. For experiments directed to analyze the effect of divalent cations, the cells were washed three times in PBS, and resuspended in the same buffer supplemented either with 1 mM MgCl2, 50 μM MnCl2, 1 mM CaCl2, or 1 mM MgCl2 plus 5 mM EDTA. Non-bound cells were removed by rinsing the wells with serum-free medium, whereas bound cells were fixed with methanol and stained with Giemsa. Cells were counted per unit area with the aid of an inverted light microscope, using a 20× high powered objective and an ocular grid. […] In all cases, experimental treatments were performed in triplicate with a minimum of three areas counted per well.
# [2] = tested on: NB100 human neuroblastoma cells; assay: Cell adhesion assay on coated wells, NB100 cells; format: cell-based; conditions: for cell adhesion to wells coated with the protein: bound cells stained and quantified
# Experimental: Cell adhesion assays were performed in accordance with procedures described by Luque et al. (FEBS Lett 1994 346:278-284). In these assays, 96-well immunoplates (MaxiSorp, Nunc, Denmark) were coated with 0.1 ml of PBS containing different amounts of BSA, glutathione S-transferase (GST), and ADAM 23/GST. After incubating 16 hours at 4° C., wells were blocked with DMEM containing 2.5% BSA, for 2 hours at 37° C. Then, NB100 neuroblastoma cells (approximately 50,000 cells per well) were added in Dulbecco's modified Eagle's medium (DMEM) supplemented with 1% BSA and incubated at 37° C. for 2 hours. For experiments directed to analyze the effect of divalent cations, the cells were washed three times in PBS, and resuspended in the same buffer supplemented either with 1 mM MgCl2, 50 μM MnCl2, 1 mM CaCl2, or 1 mM MgCl2 plus 5 mM EDTA. Non-bound cells were removed by rinsing the wells with serum-free medium, whereas bound cells were fixed with methanol and stained with Giemsa. Cells were counted per unit area with the aid of an inverted light microscope, using a 20× high powered objective and an ocular grid. For inhibition studies cells were pretreated for 30 minutes before the addition to the coated wells of mAb LM 609 (used at 1:400 dilution of ascites) or synthetic peptides (20 or 40 μg/ml) corresponding to the disintegrin loop of ADAM 23 (AVNEDCDIT, peptide 330 (SEQ ID NO:1)) or a “scrambled” peptide (DCVTNIAE, peptide 331 (SEQ ID NO:4)). In all cases, experimental treatments were performed in triplicate with a minimum of three areas counted per well.
# endothelial cells = assay: Murine MATRIGEL plug angiogenesis model; format: in vivo, female athymic (BALB/c nu/nu) mice
# Experimental: The angiogenic activity of ADAM 23 was evaluated in the murine MATRIGEL plug angiogenesis model. On day 0, ice-cold MATRIGEL (Becton-Dickinson, Bedford, Mass.) containing either vascular endothelial growth factor (VEGF, Pepro Tech, Inc., Rocky Hill, N.J.), basic fibroblast growth factor (bFGF, Pepro Tech, Inc., Rocky Hill, N.J.), […], saline buffer (PBS) or recombinant ADAM 23 disintegrin domain (dd) expressed as a GST fusion protein (GST-ADAM23dd) was implanted subcutaneously in female athymic (BALB/c nu/nu; Harlan, Indianapolis, Ind.) mice. The MATRIGEL polymerized immediately after implantation into mice forming a gel plug. On day 7, individual MATRIGEL plugs were harvested, fixed in 10% buffered formalin, embedded in paraffin, sectioned, and stained with hematoxylin-eosin. The number of endothelial cells present in each plug section was measured using a video imaging system (Image Pro-Plus, Empire Imaging, Princeton, N.J.). Fifty fields (at 20×) per plug section were randomly counted. Data are presented as “Average Number of Migrating Cells” and the p-value was determined using a two-tailed Student T-Test.
# αvβ3 integrin = target: T1, αvβ3 integrin (Homo sapiens, UniProt P05106+P06756); assay: Sepharose bead binding of purified integrin (SDS-PAGE / Western blot); conditions: confirmed by Western blot
# T1 construct: purchased Chemicon International Inc., Temecula, Calif
# Experimental: (§1) Purified integrins ([…] αvβ3, α1β1 or α5β1) (Chemicon International Inc., Temecula, Calif.) were incubated with Sepharose 4B beads containing 0.5 μg of disintegrin-GST, in a buffer containing 50 mM Tris-HCl, 200 mM NaCl and 0.2 mM MnCl2 (pH 7.4), for 4 hours at 37° C. After incubation, beads were washed six times with 200 μl of the same buffer to remove unbound protein. Beads were then resuspended in Laemmli buffer and after boiling, solubilized proteins were loaded in a 6% SDS-PAGE gel, and visualized by silver staining. Alternatively, samples were blotted to a nitrocellulose membrane and the presence of αv or β3 integrin subunits was detected using polyclonal antibodies raised against these subunits. Similarly, the putative presence of β1 integrin subunits was examined with the B3B11 monoclonal antibody (Chemicon International Inc.). Western-blots were visualized by enhanced chemiluminescence according to the manufacturer s instructions (ECL, Amersham).
# α5β1 = target: T2, α5β1 (Homo sapiens, UniProt P05556+P08648); assay: as above
# T2 construct: purchased Chemicon International Inc., Temecula, Calif
# Experimental: as §1
# α1β1 = target: T3, α1β1 (Homo sapiens, UniProt P05556+P56199); assay: as above
# T3 construct: purchased Chemicon International Inc., Temecula, Calif
# Experimental: as §1
# T47D = assay: Cell adhesion assay on coated wells, T47D cells; format: cell-based
# HeLa = assay: Cell adhesion assay on coated wells, HeLa cells; format: cell-based
# HT1080 = assay: Cell adhesion assay on coated wells, HT1080 cells; format: cell-based
# T1 sequence (P06756 31-889 limits assumed): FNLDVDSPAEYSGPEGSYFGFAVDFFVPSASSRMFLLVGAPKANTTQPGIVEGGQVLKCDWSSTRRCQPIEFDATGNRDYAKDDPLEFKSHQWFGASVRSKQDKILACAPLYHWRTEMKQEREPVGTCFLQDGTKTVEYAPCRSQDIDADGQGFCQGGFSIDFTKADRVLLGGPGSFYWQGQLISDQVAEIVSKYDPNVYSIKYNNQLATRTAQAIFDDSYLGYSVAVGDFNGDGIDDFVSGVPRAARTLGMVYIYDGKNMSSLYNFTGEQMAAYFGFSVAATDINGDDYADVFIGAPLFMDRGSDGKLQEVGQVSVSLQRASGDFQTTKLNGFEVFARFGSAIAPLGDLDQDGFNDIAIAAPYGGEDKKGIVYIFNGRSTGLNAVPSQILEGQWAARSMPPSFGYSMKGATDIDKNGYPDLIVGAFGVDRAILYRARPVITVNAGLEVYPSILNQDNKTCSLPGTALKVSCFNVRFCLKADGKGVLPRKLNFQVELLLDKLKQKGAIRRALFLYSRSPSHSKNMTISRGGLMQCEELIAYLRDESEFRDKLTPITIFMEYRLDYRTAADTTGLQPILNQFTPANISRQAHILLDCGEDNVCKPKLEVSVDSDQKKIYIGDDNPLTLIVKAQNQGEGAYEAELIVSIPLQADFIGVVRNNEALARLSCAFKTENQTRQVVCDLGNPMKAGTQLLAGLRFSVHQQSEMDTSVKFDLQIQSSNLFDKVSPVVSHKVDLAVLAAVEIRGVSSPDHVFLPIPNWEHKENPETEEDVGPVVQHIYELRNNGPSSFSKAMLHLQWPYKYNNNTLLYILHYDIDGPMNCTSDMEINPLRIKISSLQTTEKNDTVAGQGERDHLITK
# T1 sequence (P06756 891-1048 partner limits assumed): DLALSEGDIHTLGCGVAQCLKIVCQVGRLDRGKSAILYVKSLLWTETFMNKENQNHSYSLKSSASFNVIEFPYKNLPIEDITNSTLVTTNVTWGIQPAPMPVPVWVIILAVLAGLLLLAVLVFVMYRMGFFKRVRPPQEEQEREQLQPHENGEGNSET
# T1 sequence (P05106 27-788): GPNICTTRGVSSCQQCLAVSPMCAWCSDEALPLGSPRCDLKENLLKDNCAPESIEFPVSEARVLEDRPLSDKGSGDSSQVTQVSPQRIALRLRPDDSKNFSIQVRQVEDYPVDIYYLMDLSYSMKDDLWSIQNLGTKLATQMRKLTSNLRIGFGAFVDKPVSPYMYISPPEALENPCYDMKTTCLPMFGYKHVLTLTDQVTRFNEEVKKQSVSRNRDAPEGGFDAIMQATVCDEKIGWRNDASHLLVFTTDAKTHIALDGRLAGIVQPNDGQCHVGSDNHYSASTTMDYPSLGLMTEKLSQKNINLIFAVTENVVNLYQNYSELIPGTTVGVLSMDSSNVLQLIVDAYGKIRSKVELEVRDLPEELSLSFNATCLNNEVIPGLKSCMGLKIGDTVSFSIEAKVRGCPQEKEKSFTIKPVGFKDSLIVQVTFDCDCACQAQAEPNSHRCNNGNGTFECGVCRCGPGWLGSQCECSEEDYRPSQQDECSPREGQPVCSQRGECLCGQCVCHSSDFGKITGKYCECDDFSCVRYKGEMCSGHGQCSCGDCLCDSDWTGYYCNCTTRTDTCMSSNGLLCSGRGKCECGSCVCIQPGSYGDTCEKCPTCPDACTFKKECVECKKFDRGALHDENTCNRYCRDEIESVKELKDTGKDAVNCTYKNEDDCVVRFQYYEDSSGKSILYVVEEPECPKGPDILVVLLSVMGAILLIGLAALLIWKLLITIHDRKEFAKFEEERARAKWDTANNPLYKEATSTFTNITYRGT
# T2 sequence (P08648 42-894 limits assumed): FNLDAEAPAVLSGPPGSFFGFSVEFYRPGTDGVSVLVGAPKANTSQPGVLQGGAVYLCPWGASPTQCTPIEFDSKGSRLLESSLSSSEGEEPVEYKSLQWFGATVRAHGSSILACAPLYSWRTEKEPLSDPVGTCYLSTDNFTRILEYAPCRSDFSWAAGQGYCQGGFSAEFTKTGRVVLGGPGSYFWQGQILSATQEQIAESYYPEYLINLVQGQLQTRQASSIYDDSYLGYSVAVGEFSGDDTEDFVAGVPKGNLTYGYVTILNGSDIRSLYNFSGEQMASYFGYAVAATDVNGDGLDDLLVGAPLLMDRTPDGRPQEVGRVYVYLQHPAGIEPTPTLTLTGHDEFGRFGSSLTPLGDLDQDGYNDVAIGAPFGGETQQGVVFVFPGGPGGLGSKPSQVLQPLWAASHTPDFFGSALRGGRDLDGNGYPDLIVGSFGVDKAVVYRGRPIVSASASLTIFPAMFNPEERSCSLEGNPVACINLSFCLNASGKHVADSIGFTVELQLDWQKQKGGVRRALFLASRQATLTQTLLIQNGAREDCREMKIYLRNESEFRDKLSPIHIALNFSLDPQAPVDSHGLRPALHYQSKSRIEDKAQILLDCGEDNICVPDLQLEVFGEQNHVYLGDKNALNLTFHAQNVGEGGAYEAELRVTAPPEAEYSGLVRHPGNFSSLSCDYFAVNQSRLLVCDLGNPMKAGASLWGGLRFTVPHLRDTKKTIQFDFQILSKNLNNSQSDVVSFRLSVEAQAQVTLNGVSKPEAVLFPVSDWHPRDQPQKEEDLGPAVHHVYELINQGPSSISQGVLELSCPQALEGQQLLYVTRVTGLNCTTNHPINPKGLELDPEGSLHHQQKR
# T2 sequence (P08648 895-1049 partner limits assumed): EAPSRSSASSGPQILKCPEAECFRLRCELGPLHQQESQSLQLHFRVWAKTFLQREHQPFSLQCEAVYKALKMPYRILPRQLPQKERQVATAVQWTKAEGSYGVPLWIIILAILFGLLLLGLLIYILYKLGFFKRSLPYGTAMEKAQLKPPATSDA
# T2 sequence (P05556 21-798): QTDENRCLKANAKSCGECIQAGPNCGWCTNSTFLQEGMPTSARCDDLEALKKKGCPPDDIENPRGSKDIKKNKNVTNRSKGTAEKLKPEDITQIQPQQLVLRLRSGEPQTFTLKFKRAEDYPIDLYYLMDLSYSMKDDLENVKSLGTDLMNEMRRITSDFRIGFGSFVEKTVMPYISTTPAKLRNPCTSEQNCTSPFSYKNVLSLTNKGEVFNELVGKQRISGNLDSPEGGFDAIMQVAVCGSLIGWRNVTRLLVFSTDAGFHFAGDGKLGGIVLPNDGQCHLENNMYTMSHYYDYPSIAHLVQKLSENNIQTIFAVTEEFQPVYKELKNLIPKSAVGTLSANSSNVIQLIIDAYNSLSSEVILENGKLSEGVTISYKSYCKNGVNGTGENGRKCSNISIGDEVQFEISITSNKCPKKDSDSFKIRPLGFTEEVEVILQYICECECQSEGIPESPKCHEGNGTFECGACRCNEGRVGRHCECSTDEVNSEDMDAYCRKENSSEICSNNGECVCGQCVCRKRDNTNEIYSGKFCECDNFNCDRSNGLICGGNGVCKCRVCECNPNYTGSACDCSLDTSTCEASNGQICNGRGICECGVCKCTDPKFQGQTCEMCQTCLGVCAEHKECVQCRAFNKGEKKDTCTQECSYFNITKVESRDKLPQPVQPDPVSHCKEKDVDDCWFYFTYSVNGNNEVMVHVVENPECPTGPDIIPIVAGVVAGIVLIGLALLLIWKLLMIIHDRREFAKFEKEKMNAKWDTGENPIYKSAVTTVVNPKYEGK
# T3 sequence (P56199 29-1179): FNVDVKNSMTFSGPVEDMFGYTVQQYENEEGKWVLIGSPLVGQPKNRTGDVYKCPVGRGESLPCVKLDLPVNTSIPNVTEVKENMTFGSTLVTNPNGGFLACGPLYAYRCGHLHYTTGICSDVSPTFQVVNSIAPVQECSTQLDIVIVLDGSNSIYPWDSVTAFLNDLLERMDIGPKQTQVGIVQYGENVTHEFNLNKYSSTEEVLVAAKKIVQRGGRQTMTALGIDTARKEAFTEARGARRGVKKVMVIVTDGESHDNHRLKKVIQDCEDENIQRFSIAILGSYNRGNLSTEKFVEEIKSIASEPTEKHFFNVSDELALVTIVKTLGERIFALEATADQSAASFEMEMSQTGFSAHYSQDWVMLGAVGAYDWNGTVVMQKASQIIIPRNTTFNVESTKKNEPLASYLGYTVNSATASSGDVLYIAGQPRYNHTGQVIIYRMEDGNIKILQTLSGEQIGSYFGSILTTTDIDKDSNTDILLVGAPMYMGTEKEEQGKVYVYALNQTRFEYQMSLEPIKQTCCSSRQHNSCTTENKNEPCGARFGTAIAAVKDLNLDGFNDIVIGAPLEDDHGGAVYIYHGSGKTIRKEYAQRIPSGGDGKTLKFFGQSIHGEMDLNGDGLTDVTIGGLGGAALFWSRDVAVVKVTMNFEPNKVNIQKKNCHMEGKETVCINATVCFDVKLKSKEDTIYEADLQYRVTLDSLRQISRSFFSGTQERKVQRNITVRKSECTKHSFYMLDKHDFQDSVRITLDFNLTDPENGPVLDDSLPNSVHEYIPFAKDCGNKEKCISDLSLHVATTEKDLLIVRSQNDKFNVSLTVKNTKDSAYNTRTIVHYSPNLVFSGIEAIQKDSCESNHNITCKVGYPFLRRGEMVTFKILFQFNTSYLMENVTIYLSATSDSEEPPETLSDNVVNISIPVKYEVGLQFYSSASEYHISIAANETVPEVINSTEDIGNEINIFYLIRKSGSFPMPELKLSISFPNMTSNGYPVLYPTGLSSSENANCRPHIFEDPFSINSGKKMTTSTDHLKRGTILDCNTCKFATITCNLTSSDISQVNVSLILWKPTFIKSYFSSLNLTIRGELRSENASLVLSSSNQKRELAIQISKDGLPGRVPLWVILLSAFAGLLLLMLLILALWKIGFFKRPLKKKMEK
# T3 sequence (P05556 21-798): as the sequence (P05556 21-798) above
molecule,measurement,setting,value
AVNECDIT [pep330],effect of peptide on adherent cells on plates containing ADAM 23,[1],significant loss of adherent cells
"DCVTNIAE [pep331, reference compound]",effect of peptide on adherent cells on plates containing ADAM 23,[1],this effect was not observed
"GST: glutathione S-transferase, control protein for the fusion protein [reference compound]",cell adhesion to wells coated with the protein,[2],did not support any significant cell adhesion
same,angiogenic response (cells in MATRIGEL plug sections),"endothelial cells; subcutaneous plug, harvested day 7",a significant number of cells was not observed
albumin: albumin used as control coating of wells [reference compound],cell adhesion to wells coated with the protein,[2],did not support any significant cell adhesion
fibronectin [reference compound],cell adhesion to wells coated with the protein,[2],promoted cell adhesion
B1,bound αvβ3 integrin (αv and β3 bands) on protein-containing beads,αvβ3 integrin,detected
same,interaction with purified integrin,α5β1,did not reveal any evidence of interaction
same,interaction with purified integrin,α1β1,did not reveal any evidence of interaction
same,ADAM 23-mediated adhesion,T47D,no significant ADAM 23-mediated adhesion
same,dose dependence of ADAM 23-promoted cell adhesiveness,[2],dose-dependent
same,attachment of cells in the presence of divalent cations,[2]; Mn2+ and Mg2+,stimulated
same,cell adhesion to wells coated with the protein,[2],promoted cell adhesion
same,ADAM 23-mediated adhesion,HeLa,no significant ADAM 23-mediated adhesion
same,ADAM 23-mediated adhesion,HT1080,no significant ADAM 23-mediated adhesion
same,dose dependence of angiogenic response,"endothelial cells; 4, 20.5 or 61.5 μg/plug, day 7",dose-dependent
same,cell types in plug sections (microscopic histologic analyses),"endothelial cells; day 7, hematoxylin-eosin",both endothelial and smooth muscle cells were present
